According to the supplement of paper PMC10065799, “High-throughput profiling of sequence recognition by tyrosine kinases and SH2 domains using bacterial peptide display” (eLife, 2023):

System: AncSZ
Experiment: phosphorylation enrichment, bacterial display (enrichment ratio); higher = better substrate or ligand; peptides without Tyr show the background
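Further: 11-residue human phosphosite peptides and single-mutation variants displayed on the E. coli surface, counted by deep sequencing, each peptide's frequency after selection divided by its frequency in the unselected input library; frequency after pTyr selection over input frequency; kinase dosed for 20-30% of maximal phosphorylation in three min.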

Sequence | phosphorylation enrichment
TNQVIYLNPPI [DYNC1H1_Y970] | 0.849
LFLALYTGLVH [PIGB_Y402] | 2.04
ESFCLYPPVPQ [CYP4B1_Y377_R375C] | 0.874
EEALFYLTRVE [SET_Y119_H118Y_YF] | 1.43
GGYTCCCDGKK [PROS1_Y266_Y266C] | 0.943
SEDSEYYKAFE [CASQ2_Y178] | 1.71
YFRDGYMPRQY [GSS_Y270] | 0.615
TSYSGYRCHRH [NKAPL_Y94_Y96C] | 0.694
IDPYIYTPFGS [CYP3A4_Y432] | 1.43
WQQQSYLDSVI [CTNNB1_Y30_G34V] | 0.983
FTRNFYVWAVL [CYBA_Y88_R90W_YF] | 1.25
IEPVIDVVQRR [ANOS1_Y217_Y217D] | 1.02
SDFFAYSPVRE [H6PD_Y449_YF] | 0.928
SLNEEYAKNKT [MSH2_Y563_T564A] | 0.765
ETKRPYTVILI [SBDS_Y128] | 1.06
TEVRRYVLPLN [RPE65_Y368_P363T] | 0.649
RRIHSYRGFLW [VHL_Y112_H115Y_YF] | 0.622
VPLATYMRIYK [RPL21_Y30] | 0.887
RHIEKYVDQGK [IRAK3_Y61] | 0.771
GTTIHYNFMCN [TP53_Y234_C229G_YF] | 1.12
ISKKIYDTIHD [CTNNA3_Y614] | 0.555
ITSLLYHVVGW [GBA_Y412_N409S] | 1.32
NLMPAYYKCIQ [CYP21A2_Y190] | 1.09
HCFAAYFQQGD [GPI_Y351_R347C] | 1.72
WNNLDYMDSRR [GAA_Y407_D404N] | 0.964
PASWTYVRWFD [PTDSS1_Y274] | 1.71
PLRAFYLIARV [HLCS_Y635_D634Y_YF] | 3.67
PSGPTYRGAVP [ASAH1_Y43] | 0.772
FSGDCYRIQGR [DDR2_Y741_Y740C_YF] | 0.989

System: c-Abl (mouse)
Experiment: as above

Sequence | phosphorylation enrichment
TNQVIYLNPPI [DYNC1H1_Y970] | 13.9
LFLALYTGLVH [PIGB_Y402] | 1.38
ESFCLYPPVPQ [CYP4B1_Y377_R375C] | 0.739
EEALFYLTRVE [SET_Y119_H118Y_YF] | 1.03
GGYTCCCDGKK [PROS1_Y266_Y266C] | 0.792
SEDSEYYKAFE [CASQ2_Y178] | 0.695
YFRDGYMPRQY [GSS_Y270] | 0.496
TSYSGYRCHRH [NKAPL_Y94_Y96C] | 0.528
IDPYIYTPFGS [CYP3A4_Y432] | 0.865
WQQQSYLDSVI [CTNNB1_Y30_G34V] | 0.806
FTRNFYVWAVL [CYBA_Y88_R90W_YF] | 1.61
IEPVIDVVQRR [ANOS1_Y217_Y217D] | 0.624
SDFFAYSPVRE [H6PD_Y449_YF] | 0.615
SLNEEYAKNKT [MSH2_Y563_T564A] | 0.674
ETKRPYTVILI [SBDS_Y128] | 0.825
TEVRRYVLPLN [RPE65_Y368_P363T] | 0.526
RRIHSYRGFLW [VHL_Y112_H115Y_YF] | 0.426
VPLATYMRIYK [RPL21_Y30] | 0.591
RHIEKYVDQGK [IRAK3_Y61] | 0.783
GTTIHYNFMCN [TP53_Y234_C229G_YF] | 0.888
ISKKIYDTIHD [CTNNA3_Y614] | 0.452
ITSLLYHVVGW [GBA_Y412_N409S] | 2
NLMPAYYKCIQ [CYP21A2_Y190] | 1.24
HCFAAYFQQGD [GPI_Y351_R347C] | 1.98
WNNLDYMDSRR [GAA_Y407_D404N] | 0.581
PASWTYVRWFD [PTDSS1_Y274] | 1.04
PLRAFYLIARV [HLCS_Y635_D634Y_YF] | 3.67
PSGPTYRGAVP [ASAH1_Y43] | 0.489
FSGDCYRIQGR [DDR2_Y741_Y740C_YF] | 0.636

System: Fer (mouse)
Experiment: as above

Sequence | phosphorylation enrichment
TNQVIYLNPPI [DYNC1H1_Y970] | 0.473
LFLALYTGLVH [PIGB_Y402] | 1.46
ESFCLYPPVPQ [CYP4B1_Y377_R375C] | 0.582
EEALFYLTRVE [SET_Y119_H118Y_YF] | 0.835
GGYTCCCDGKK [PROS1_Y266_Y266C] | 0.513
SEDSEYYKAFE [CASQ2_Y178] | 0.535
YFRDGYMPRQY [GSS_Y270] | 0.531
TSYSGYRCHRH [NKAPL_Y94_Y96C] | 0.31
IDPYIYTPFGS [CYP3A4_Y432] | 1.9
WQQQSYLDSVI [CTNNB1_Y30_G34V] | 0.469
FTRNFYVWAVL [CYBA_Y88_R90W_YF] | 0.466
IEPVIDVVQRR [ANOS1_Y217_Y217D] | 0.354
SDFFAYSPVRE [H6PD_Y449_YF] | 0.821
SLNEEYAKNKT [MSH2_Y563_T564A] | 0.318
ETKRPYTVILI [SBDS_Y128] | 1.16
TEVRRYVLPLN [RPE65_Y368_P363T] | 0.514
RRIHSYRGFLW [VHL_Y112_H115Y_YF] | 0.458
VPLATYMRIYK [RPL21_Y30] | 0.517
RHIEKYVDQGK [IRAK3_Y61] | 0.593
GTTIHYNFMCN [TP53_Y234_C229G_YF] | 0.63
ISKKIYDTIHD [CTNNA3_Y614] | 0.421
ITSLLYHVVGW [GBA_Y412_N409S] | 2.94
NLMPAYYKCIQ [CYP21A2_Y190] | 0.626
HCFAAYFQQGD [GPI_Y351_R347C] | 1.08
WNNLDYMDSRR [GAA_Y407_D404N] | 0.498
PASWTYVRWFD [PTDSS1_Y274] | 0.729
PLRAFYLIARV [HLCS_Y635_D634Y_YF] | 1.26
PSGPTYRGAVP [ASAH1_Y43] | 0.417
FSGDCYRIQGR [DDR2_Y741_Y740C_YF] | 0.493

System: c-Src
Experiment: as above

Sequence | phosphorylation enrichment
TNQVIYLNPPI [DYNC1H1_Y970] | 0.743
LFLALYTGLVH [PIGB_Y402] | 2.11
ESFCLYPPVPQ [CYP4B1_Y377_R375C] | 0.477
EEALFYLTRVE [SET_Y119_H118Y_YF] | 0.557
GGYTCCCDGKK [PROS1_Y266_Y266C] | 0.426
SEDSEYYKAFE [CASQ2_Y178] | 0.698
YFRDGYMPRQY [GSS_Y270] | 0.509
TSYSGYRCHRH [NKAPL_Y94_Y96C] | 0.433
IDPYIYTPFGS [CYP3A4_Y432] | 6.67
WQQQSYLDSVI [CTNNB1_Y30_G34V] | 0.496
FTRNFYVWAVL [CYBA_Y88_R90W_YF] | 0.508
IEPVIDVVQRR [ANOS1_Y217_Y217D] | 0.258
SDFFAYSPVRE [H6PD_Y449_YF] | 0.573
SLNEEYAKNKT [MSH2_Y563_T564A] | 0.45
ETKRPYTVILI [SBDS_Y128] | 0.458
TEVRRYVLPLN [RPE65_Y368_P363T] | 0.38
RRIHSYRGFLW [VHL_Y112_H115Y_YF] | 0.552
VPLATYMRIYK [RPL21_Y30] | 0.429
RHIEKYVDQGK [IRAK3_Y61] | 0.687
GTTIHYNFMCN [TP53_Y234_C229G_YF] | 0.467
ISKKIYDTIHD [CTNNA3_Y614] | 0.579
ITSLLYHVVGW [GBA_Y412_N409S] | 3.6
NLMPAYYKCIQ [CYP21A2_Y190] | 0.51
HCFAAYFQQGD [GPI_Y351_R347C] | 1.23
WNNLDYMDSRR [GAA_Y407_D404N] | 0.412
PASWTYVRWFD [PTDSS1_Y274] | 1.01
PLRAFYLIARV [HLCS_Y635_D634Y_YF] | 2.27
PSGPTYRGAVP [ASAH1_Y43] | 0.878
FSGDCYRIQGR [DDR2_Y741_Y740C_YF] | 0.45
